Laboratory results from US20220143148A1, “COMPOSITIONS AND METHODS FOR MODULATING CGRP SIGNALING TO REGULATE INTESTINAL INNATE LYMPHOID CELLS” (The Broad Institute, Inc., priority 2019, published 2022).

System: small intestinal immune cells
Assay: Droplet-based scRNA-seq of small intestinal immune cells (LP and PP), OVA vs PBS, clustering and differential expression
Format: in vivo, mouse
Conditions: PP
Description: To comprehensively characterize small intestinal immune cells, Applicants generated scRNA-Seq profiles for 58,067 immune cells collected from lamina propria (LP) and Peyer's patch (PP) regions at steady state and after induction of a type 2 inflammatory reaction to ovalbumin (OVA) (Brandt et al., 2003) (FIGS. 1A and 8A). To ensure sufficient representation of rare cells, Applicants combined a normalization strategy—removing by flow sorting either a portion of IgD+ naïve B cells, which are the most abundant cell type in PPs, or all CD19+ and CD3+ T cells (FIG. 8B, Methods)—with profiling of a sufficiently large number of cells number (P>0.99 to recover at least 15 cells from each cluster, Methods) by massively parallel scRNA-seq (Haber et al., 2017) (Methods). Applicants obtained 36,797 and 21,270 high quality cells passing initial filtering (Methods) from PP and LP regions, respectively.
Overall, Applicants annotated 27 cell subsets across the two compartments, spanning T cells, B cells, ILCs, dendritic cells (DCs), myeloid cells and stromal cells, in frequencies ranging from 0.07% to 14%. Briefly, Applicants first partitioned the cells from the PP regions by unsupervised clustering (Methods) into 46 clusters, retained the 97% of cells that were robustly assigned cell identities in each cluster (Methods), assigned the cells from the LP regions to the 46 clusters using a classifier (Methods), and visualized the data with scvis (Ding et al., 2018), a deep generative model-based method (FIGS. 1B and 8C, Methods). Next, Applicants identified genes that were differentially expressed between the cells in each cluster and the remaining cells (Table 1, Methods), as well as between pairs of clusters (Table 2), to elucidate identities of similar cell types/states. Applicants excluded from downstream analysis clusters mostly consisting of contaminants from epithelium, likely doublets, or cells with a small number of Unique Molecular Identifiers (UMIs) (FIGS. 1C and 8D), or lacking distinct markers (Methods). Altogether, Applicants retained 27 clusters spanning 85% of the cells and each associated with distinct marker genes (FIG. 8E, Methods).
To induce allergic reaction to OVA, 6 to 7 weeks old mice were sensitized twice, two weeks apart, with 50 μg of OVA plus 1 mg of aluminum potassium sulfate adjuvant via intraperitoneal injection. Two weeks later, mice were orally administered with 50 mg of OVA on every other day for a total of five times. 1 μg of α-CGRP peptide was administered simultaneously when indicated. Mice were deprived of food for 3-4 hours in cages with wood chip bedding for limiting antigen degradation in the stomach before each intragastric challenge.
Isolation of cells from Peyer's patches (PPs). Peyer's patches (PPs) were carefully dissected from the small intestine under a stereo microscope using a fine scissor, pierced once with a fine forcep. Tissues were digested in freshly made digestion buffer (RPMI-1640 containing 100 μg/ml Liberase™ and 50 μg/ml DNase I at 37° C. on a roto-mixer. After 15 min, tissues were very gently mixed using a 1 ml pipette. The supernatant was collected and added to ice-cold MACS buffer (pH 7.4; PBS plus 2% FCS and 2 mM EDTA). Pre-warmed (37° C.) fresh digestion buffer was added to the remaining tissues. After rotation at 37° C. for 15 min, the mixture was vigorously mixed using a 1 ml pipette for 1 min. Supernatants from the two steps were combined and passed through 70 μm filters and stained for FACS (below).
Isolation of cells from the lamina propria (LP). The small intestines were opened longitudinally and washed in ice-cold PBS. For scRNA-seq, roughly 0.5 cm of fragments from each of the distal, middle and proximal regions without visible PPs were collected. Epithelial cells were dissociated by tissue rotation in pre-warmed (37° C.) PBS containing 10 mM EDTA at 37° C. for 15 min, followed by additional incubation on ice for 15 min. Tissues were then shaken vigorously. […]

B1: OVA (protein, UniProt P01012 2-386, looked up)
Ovalbumin: GSIGAASMEFCFDVFKELKVHHANENIFYCPIAIMSALAMVYLGAKDSTRTQINKVVRFDKLPGFGDSIEAQCGTSVNVHSSLRDILNQITKPNDVYSFSLASRLYAEERYPILPEYLQCVKELYRGGLEPINFQTAADQARELINSWVESQTNGIIRNVLQPSSVDSQTAMVLVNAIVFKGLWEKAFKDEDTQAMPFRVTEQESKPVQMMYQIGLFRVASMASEKMKILELPFASGTMSMLVLLPDEVSGLEQLESIINFEKLTEWTSSNVMEERKIKVYLPRMKMEEKYNLTSVLMAMGITDVFSSSANLSGISSAESLKISQAVHAAHAEINEAGREVVGSAEAGVDAASVSEEFRADHPFLFCIKHIATNAVLFFGRCVSP
Cluster ID 6
  5730508B09Rik percentage of expressing cells in OVA-treated group: 0.268
  Ablim1 percentage of expressing cells in OVA-treated group: 0.403
  Arid3a percentage of expressing cells in OVA-treated group: 0.212
  Arl4a percentage of expressing cells in OVA-treated group: 0.228
  Asph percentage of expressing cells in OVA-treated group: 0.377
  Cdkn2d percentage of expressing cells in OVA-treated group: 0.747
  Cfp percentage of expressing cells in OVA-treated group: 0.422
  Ctsz percentage of expressing cells in OVA-treated group: 0.97
  Fcer1g percentage of expressing cells in OVA-treated group: 0.94
  Gadd45b percentage of expressing cells in OVA-treated group: 0.342
  Gatad1 percentage of expressing cells in OVA-treated group: 0.34
  Gnai2 percentage of expressing cells in OVA-treated group: 0.932
  Grb2 percentage of expressing cells in OVA-treated group: 0.614
  H2-DMa percentage of expressing cells in OVA-treated group: 0.878
  Hnrnpa3 percentage of expressing cells in OVA-treated group: 0.851
  Irf4 percentage of expressing cells in OVA-treated group: 0.256
  Itgb7 percentage of expressing cells in OVA-treated group: 0.669
  Klf3 percentage of expressing cells in OVA-treated group: 0.125
  Klk1b27 percentage of expressing cells in OVA-treated group: 0.974
  Lifr percentage of expressing cells in OVA-treated group: 0.595
  Map3k1 percentage of expressing cells in OVA-treated group: 0.346
  Mark3 percentage of expressing cells in OVA-treated group: 0.139
  Net1 percentage of expressing cells in OVA-treated group: 0.53
  Orai1 percentage of expressing cells in OVA-treated group: 0.274
  Paqr5 percentage of expressing cells in OVA-treated group: 0.52
  Pde4b percentage of expressing cells in OVA-treated group: 0.177
  Pdia3 percentage of expressing cells in OVA-treated group: 0.844
  Pink1 percentage of expressing cells in OVA-treated group: 0.282
  Pten percentage of expressing cells in OVA-treated group: 0.429
  Ptprcap percentage of expressing cells in OVA-treated group: 0.941
  Rab7b percentage of expressing cells in OVA-treated group: 0.223
  Rsrp1 percentage of expressing cells in OVA-treated group: 0.754
  Sema4b percentage of expressing cells in OVA-treated group: 0.531
  Sertad1 percentage of expressing cells in OVA-treated group: 0.12
  Snrnp70 percentage of expressing cells in OVA-treated group: 0.43
  Tmem50a percentage of expressing cells in OVA-treated group: 0.854
  Tmem59 percentage of expressing cells in OVA-treated group: 0.833
  Tmem86a percentage of expressing cells in OVA-treated group: 0.204
  Tsix percentage of expressing cells in OVA-treated group: 0.23
  Txndc5 percentage of expressing cells in OVA-treated group: 0.699
Cluster ID 6, OVA vs PBS
  5730508B09Rik LN (average fold change): −0.218
  Ablim1 LN (average fold change): −0.197
  Arid3a LN (average fold change): −0.329
  Arl4a LN (average fold change): −0.276
  Asph LN (average fold change): −0.195
  Cdkn2d LN (average fold change): 0.244
  Cfp LN (average fold change): 0.312
  Ctsz LN (average fold change): 0.156
  Fcer1g LN (average fold change): 0.160
  Gadd45b LN (average fold change): −0.220
  Gatad1 LN (average fold change): −0.199
  Gnai2 LN (average fold change): −0.175
  Grb2 LN (average fold change): −0.222
  H2-DMa LN (average fold change): 0.190
  Hnrnpa3 LN (average fold change): 0.164
  Irf4 LN (average fold change): −0.248
  Itgb7 LN (average fold change): 0.238
  Klf3 LN (average fold change): −0.428
  Klk1b27 LN (average fold change): 0.170
  Lifr LN (average fold change): 0.265
  Map3k1 LN (average fold change): −0.227
  Mark3 LN (average fold change): −0.383
  Net1 LN (average fold change): 0.285
  Orai1 LN (average fold change): −0.245
  Paqr5 LN (average fold change): 0.279
  Pde4b LN (average fold change): −0.282
  Pdia3 LN (average fold change): 0.157
  Pink1 LN (average fold change): −0.291
  Pten LN (average fold change): −0.226
  Ptprcap LN (average fold change): 0.159
  Rab7b LN (average fold change): −0.285
  Rsrp1 LN (average fold change): 0.195
  Sema4b LN (average fold change): 0.221
  Sertad1 LN (average fold change): −0.396
  Snrnp70 LN (average fold change): 0.220
  Tmem50a LN (average fold change): 0.153
  Tmem59 LN (average fold change): 0.179
  Tmem86a LN (average fold change): 0.323
  Tsix LN (average fold change): −0.418
  Txndc5 LN (average fold change): 0.226
Cluster ID 7
  Ddit4 percentage of expressing cells in OVA-treated group: 0.359
  Dusp2 percentage of expressing cells in OVA-treated group: 0.465
  Fkbp5 percentage of expressing cells in OVA-treated group: 0.167
  Gabarapl2 percentage of expressing cells in OVA-treated group: 0.643
  Hsp90ab1 percentage of expressing cells in OVA-treated group: 0.834
  Il7r percentage of expressing cells in OVA-treated group: 0.191
  Lmo4 percentage of expressing cells in OVA-treated group: 0.204
  Matk percentage of expressing cells in OVA-treated group: 0.284
  Ptpn22 percentage of expressing cells in OVA-treated group: 0.53
  Svbp percentage of expressing cells in OVA-treated group: 0.246
  Tsc22d3 percentage of expressing cells in OVA-treated group: 0.565
  Txnip percentage of expressing cells in OVA-treated group: 0.415
  Zfp36l2 percentage of expressing cells in OVA-treated group: 0.757
Cluster ID 7, OVA vs PBS
  Ddit4 LN (average fold change): 0.463
  Dusp2 LN (average fold change): 0.542
  Fkbp5 LN (average fold change): 0.540
  Gabarapl2 LN (average fold change): 0.253
  Hsp90ab1 LN (average fold change): −0.450
  Il7r LN (average fold change): 0.526
  Lmo4 LN (average fold change): 0.711
  Matk LN (average fold change): 0.513
  Ptpn22 LN (average fold change): 0.340
  Svbp LN (average fold change): 0.261
  Tsc22d3 LN (average fold change): 1.003
  Txnip LN (average fold change): 0.551
  Zfp36l2 LN (average fold change): 1.239
Cluster ID 8
  AW112010 percentage of expressing cells in OVA-treated group: 0.995
  AY036118 percentage of expressing cells in OVA-treated group: 0.431
  Actr3 percentage of expressing cells in OVA-treated group: 0.771
  Alyref percentage of expressing cells in OVA-treated group: 0.137
  Amd1 percentage of expressing cells in OVA-treated group: 0.265
  Arf4 percentage of expressing cells in OVA-treated group: 0.478
  Arfrp1 percentage of expressing cells in OVA-treated group: 0.21
  Arl6ip1 percentage of expressing cells in OVA-treated group: 0.61
  Arl6ip5 percentage of expressing cells in OVA-treated group: 0.618
  Arpc5l percentage of expressing cells in OVA-treated group: 0.381
  Arrb2 percentage of expressing cells in OVA-treated group: 0.32
  Ash1l percentage of expressing cells in OVA-treated group: 0.235
  B2m percentage of expressing cells in OVA-treated group: 0.999
  Bcl2a1b percentage of expressing cells in OVA-treated group: 0.151
  Bcl2l11 percentage of expressing cells in OVA-treated group: 0.383
  Bcl2 percentage of expressing cells in OVA-treated group: 0.839
  Bhlhe40 percentage of expressing cells in OVA-treated group: 0.571
  Cap1 percentage of expressing cells in OVA-treated group: 0.695
  Ccr2 percentage of expressing cells in OVA-treated group: 0.536
  Cd47 percentage of expressing cells in OVA-treated group: 0.833
  Cd69 percentage of expressing cells in OVA-treated group: 0.306
  Cd74 percentage of expressing cells in OVA-treated group: 0.448
  Cdk2ap1 percentage of expressing cells in OVA-treated group: 0.132
  Cdkn1a percentage of expressing cells in OVA-treated group: 0.084
  Cdv3 percentage of expressing cells in OVA-treated group: 0.255
  Cks2 percentage of expressing cells in OVA-treated group: 0.108
  Clec2d percentage of expressing cells in OVA-treated group: 0.289
  Coq10b percentage of expressing cells in OVA-treated group: 0.305
  Crem percentage of expressing cells in OVA-treated group: 0.371
  Csrp1 percentage of expressing cells in OVA-treated group: 0.129
  Ctla2a percentage of expressing cells in OVA-treated group: 0.74
  Cxcr4 percentage of expressing cells in OVA-treated group: 0.577
  Ddx21 percentage of expressing cells in OVA-treated group: 0.248
  Defa24 percentage of expressing cells in OVA-treated group: 0.044
  Dgat1 percentage of expressing cells in OVA-treated group: 0.175
  Dusp1 percentage of expressing cells in OVA-treated group: 0.614
  Eef2 percentage of expressing cells in OVA-treated group: 0.957
  Egr1 percentage of expressing cells in OVA-treated group: 0.156
  Eif4a2 percentage of expressing cells in OVA-treated group: 0.622
  Emb percentage of expressing cells in OVA-treated group: 0.506
  Fam105a percentage of expressing cells in OVA-treated group: 0.376
  Fasl percentage of expressing cells in OVA-treated group: 0.598
  Fcer1g percentage of expressing cells in OVA-treated group: 0.927
